According to paper PMC4449551, “The dominant negative ARM domain uncovers multiple functions of PUB13 in Arabidopsis immunity, flowering, and senescence” (Journal of Experimental Botany, 2015):

Molecular target: T1, GST–PUB13 (Arabidopsis, UniProt Q9SNC6 1-660)
T1 construct: PUB13, plant U-box E3 ubiquitin ligase of Arabidopsis, full length (UND, U-box and ARM repeat domain); also called full-length PUB13; source: E. coli BL21, purified (glutathione agarose)
T1 sequence (looked up): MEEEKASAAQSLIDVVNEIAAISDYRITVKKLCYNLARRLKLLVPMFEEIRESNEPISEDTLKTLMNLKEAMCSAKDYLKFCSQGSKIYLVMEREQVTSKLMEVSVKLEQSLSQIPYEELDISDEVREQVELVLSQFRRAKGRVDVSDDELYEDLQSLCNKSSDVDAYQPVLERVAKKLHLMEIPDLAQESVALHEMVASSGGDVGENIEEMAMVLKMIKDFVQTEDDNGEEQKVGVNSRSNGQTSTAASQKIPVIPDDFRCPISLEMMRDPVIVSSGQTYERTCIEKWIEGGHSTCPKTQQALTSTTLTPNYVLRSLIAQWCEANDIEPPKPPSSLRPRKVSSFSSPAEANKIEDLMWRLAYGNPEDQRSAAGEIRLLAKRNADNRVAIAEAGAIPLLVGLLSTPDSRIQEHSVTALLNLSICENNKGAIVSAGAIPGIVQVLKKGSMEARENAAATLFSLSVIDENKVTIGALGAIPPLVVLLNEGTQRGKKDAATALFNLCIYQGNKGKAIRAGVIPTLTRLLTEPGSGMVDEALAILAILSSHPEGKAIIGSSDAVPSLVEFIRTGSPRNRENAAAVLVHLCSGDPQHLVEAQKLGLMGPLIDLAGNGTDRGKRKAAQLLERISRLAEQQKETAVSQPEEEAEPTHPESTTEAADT
Assay: pull-down; About 10 μg of MBP or MBP fusion on amylose beads as bait, 10 μg of GST-tagged protein in 1 ml pull-down buffer (20mM TRIS-HCl pH 7.5, 1mM β-mercaptoethanol, 3mM EDTA, 150mM NaCl, 1% NP-40), 1h at 4 °C; western blot with α-GST (Fig. 1B, 1F)
Settings: both partners purified

binding result: binds
B1: MBP–BAK1CD (domain or fragment, Arabidopsis, UniProt Q94F62 247-615, looked up)
chain: AWWRRKKPQDHFFDVPAEEDPEVHLGQLKRFSLRELQVASDNFSNKNILGRGGFGKVYKGRLADGTLVAVKRLKEERTQGGELQFQTEVEMISMAVHRNLLRLRGFCMTPTERLLVYPYMANGSVASCLRERPESQPPLDWPKRQRIALGSARGLAYLHDHCDPKIIHRDVKAANILLDEEFEAVVGDFGLAKLMDYKDTHVTTAVRGTIGHIAPEYLSTGKSSEKTDVFGYGVMLLELITGQRAFDLARLANDDDVMLLDWVKGLLKEKKLEALVDVDLQGNYKDEEVEQLIQVALLCTQSSPMERPKMSEVVRMLEGDGLAERWEEWQKEEMFRQDFNYPTHHPAVSGWIIGDSTSQIENEYPSGPR
notes: BAK1 (BRI1-associated kinase), receptor-like kinase of Arabidopsis, cytoplasmic domain; also called cytoplasmic domain of BAK1; BAK1 cytosolic domain; source: E. coli BL21, purified (amylose)
